Numbered stars: 1 amine (or outer) side, 2 acyl side, 3 side chain; on linkers, the order of the positions; unused ones are H or OH. Bridge positions count the residues as written; N and C are the ends. Side chains are listed from the residue outwards. Ends that are not written are not given here. * marks the point of attachment. C20 diacid = O=C(O)CCCCCCCCCCCCCCCCCCC(=O)*; γGlu = O=C(O)[C@H](CCC(=O)[*:2])N[*:1]
T1: human calcitonin receptor (human, UniProt P30988 25-474)
T1 sequence (looked up): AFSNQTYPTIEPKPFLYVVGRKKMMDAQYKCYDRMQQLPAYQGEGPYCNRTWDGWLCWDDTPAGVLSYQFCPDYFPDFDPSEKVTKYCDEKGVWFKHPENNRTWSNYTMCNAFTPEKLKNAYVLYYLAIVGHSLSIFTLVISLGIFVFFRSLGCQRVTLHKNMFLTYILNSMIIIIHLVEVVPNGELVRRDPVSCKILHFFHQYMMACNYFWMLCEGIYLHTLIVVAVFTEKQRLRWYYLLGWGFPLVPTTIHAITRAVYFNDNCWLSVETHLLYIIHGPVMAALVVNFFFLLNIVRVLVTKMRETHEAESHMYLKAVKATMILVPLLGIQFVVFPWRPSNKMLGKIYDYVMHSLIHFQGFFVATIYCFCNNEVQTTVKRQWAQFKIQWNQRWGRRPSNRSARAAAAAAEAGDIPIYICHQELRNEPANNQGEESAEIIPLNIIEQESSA

T2: human amylin receptor (amylin 3(a) receptor: human calcitonin receptor plus RAMP-3) (human, UniProt P30988 25-474; O60896 24-148)
T2 sequence (looked up) 1: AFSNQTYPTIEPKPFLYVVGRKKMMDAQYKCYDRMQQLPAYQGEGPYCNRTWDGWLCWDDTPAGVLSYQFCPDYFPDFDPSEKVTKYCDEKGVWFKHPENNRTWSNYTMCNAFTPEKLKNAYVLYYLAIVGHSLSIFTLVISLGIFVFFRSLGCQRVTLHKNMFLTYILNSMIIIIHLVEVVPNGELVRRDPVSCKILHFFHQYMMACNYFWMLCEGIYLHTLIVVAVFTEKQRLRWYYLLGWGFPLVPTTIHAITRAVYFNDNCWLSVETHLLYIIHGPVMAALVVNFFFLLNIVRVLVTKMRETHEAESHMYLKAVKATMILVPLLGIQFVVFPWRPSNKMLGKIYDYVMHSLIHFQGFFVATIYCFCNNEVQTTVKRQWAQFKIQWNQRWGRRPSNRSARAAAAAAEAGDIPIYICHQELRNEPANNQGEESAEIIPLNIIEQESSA
T2 sequence (looked up) 2: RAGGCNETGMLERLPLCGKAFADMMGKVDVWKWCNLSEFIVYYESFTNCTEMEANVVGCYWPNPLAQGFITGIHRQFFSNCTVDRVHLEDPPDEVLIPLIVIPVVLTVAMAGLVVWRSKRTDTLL


Tests used:
[1] = molecular target: T1, human calcitonin receptor; experiment: cell-based or functional assay
[2] = molecular target: T2, human amylin receptor (amylin 3(a) …); experiment: cell-based or functional assay
[3] = molecular target: T2, human amylin receptor (amylin 3(a) …); experiment: SPA competition binding, displacement of 125I-rat amylin, membranes of BHK amylin 3(a)/CRE-luc cells
Summary of the method: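 Membranes from BHK Amylin 3(a)/CRE-luc cells (35 ng/μL final) were mixed with SPA beads and test compounds in 50 mM Hepes pH 7.4 with 1 mM CaCl2, 5 mM MgCl₂, 0.1% OA and 0.02% Tween20. Incubation ran 120 min at 25° C with shaking; IC₅₀ came from one-site competition fitting.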

Row | Binder | hCTR funct. EC50 (pM) [1] [pM] | hAmylin-R funct. EC50 (pM) [2] [pM] | IC50 [3] [pM] | Ratio hCT/hAmylin funct. [2]
1 | K([γGlu-γGlu-C20 diacid])CNTATCATQRLAEFLRHSSPNFGAIPSSTNVGHETY-NH2 (disulfide 2-7; N-terminus assumed; SMILES CC[C@H](C)[C@H](NC(=O)[C@H](C)NC(=O)CNC(=O)[C@H](Cc1ccccc1)NC(=O)[C@H](CC(N)=O)NC(=O)[C@@H]1CCCN1C(=O)[C@H](CO)NC(=O)[C@H](CO)NC(=O)[C@H](Cc1c[nH]cn1)NC(=O)[C@H](CCCNC(=N)N)NC(=O)[C@H](CC(C)C)NC(=O)[C@H](Cc1ccccc1)NC(=O)[C@H](CCC(=O)O)NC(=O)[C@H](C)NC(=O)[C@H](CC(C)C)NC(=O)[C@H](CCCNC(=N)N)NC(=O)[C@H](CCC(N)=O)NC(=O)[C@@H](NC(=O)[C@H](C)NC(=O)[C@@H]1CSSC[C@H](NC(=O)[C@@H](N)CCCCNC(=O)CC[C@H](NC(=O)CC[C@H](NC(=O)CCCCCCCCCCCCCCCCCCC(=O)O)C(=O)O)C(=O)O)C(=O)N[C@@H](CC(N)=O)C(=O)N[C@@H]([C@@H](C)O)C(=O)N[C@@H](C)C(=O)N[C@@H]([C@@H](C)O)C(=O)N1)[C@@H](C)O)C(=O)N1CCC[C@H]1C(=O)N[C@@H](CO)C(=O)N[C@@H](CO)C(=O)N[C@H](C(=O)N[C@@H](CC(N)=O)C(=O)N[C@H](C(=O)NCC(=O)N[C@@H](Cc1c[nH]cn1)C(=O)N[C@@H](CCC(=O)O)C(=O)N[C@H](C(=O)N[C@@H](Cc1ccc(O)cc1)C(N)=O)[C@@H](C)O)C(C)C)[C@@H](C)O) | 7050 | 445 | 525 | 
2 | K([γGlu-γGlu-C20 diacid])CNTATCATQRLAEFLRHSSPNFGAIPSSTNVGPETP-NH2 (disulfide 2-7; N-terminus assumed; SMILES CC[C@H](C)[C@H](NC(=O)[C@H](C)NC(=O)CNC(=O)[C@H](Cc1ccccc1)NC(=O)[C@H](CC(N)=O)NC(=O)[C@@H]1CCCN1C(=O)[C@H](CO)NC(=O)[C@H](CO)NC(=O)[C@H](Cc1c[nH]cn1)NC(=O)[C@H](CCCNC(=N)N)NC(=O)[C@H](CC(C)C)NC(=O)[C@H](Cc1ccccc1)NC(=O)[C@H](CCC(=O)O)NC(=O)[C@H](C)NC(=O)[C@H](CC(C)C)NC(=O)[C@H](CCCNC(=N)N)NC(=O)[C@H](CCC(N)=O)NC(=O)[C@@H](NC(=O)[C@H](C)NC(=O)[C@@H]1CSSC[C@H](NC(=O)[C@@H](N)CCCCNC(=O)CC[C@H](NC(=O)CC[C@H](NC(=O)CCCCCCCCCCCCCCCCCCC(=O)O)C(=O)O)C(=O)O)C(=O)N[C@@H](CC(N)=O)C(=O)N[C@@H]([C@@H](C)O)C(=O)N[C@@H](C)C(=O)N[C@@H]([C@@H](C)O)C(=O)N1)[C@@H](C)O)C(=O)N1CCC[C@H]1C(=O)N[C@@H](CO)C(=O)N[C@@H](CO)C(=O)N[C@H](C(=O)N[C@@H](CC(N)=O)C(=O)N[C@H](C(=O)NCC(=O)N1CCC[C@H]1C(=O)N[C@@H](CCC(=O)O)C(=O)N[C@H](C(=O)N1CCC[C@H]1C(N)=O)[C@@H](C)O)C(C)C)[C@@H](C)O) | 102 | 132 | 533 | 0.8
3 | K([γGlu-γGlu-C20 diacid])CNTATCATQRLAEFLRHSSPNFGAIPSSTNVGPETY-NH2 (disulfide 2-7; N-terminus assumed; SMILES CC[C@H](C)[C@H](NC(=O)[C@H](C)NC(=O)CNC(=O)[C@H](Cc1ccccc1)NC(=O)[C@H](CC(N)=O)NC(=O)[C@@H]1CCCN1C(=O)[C@H](CO)NC(=O)[C@H](CO)NC(=O)[C@H](Cc1c[nH]cn1)NC(=O)[C@H](CCCNC(=N)N)NC(=O)[C@H](CC(C)C)NC(=O)[C@H](Cc1ccccc1)NC(=O)[C@H](CCC(=O)O)NC(=O)[C@H](C)NC(=O)[C@H](CC(C)C)NC(=O)[C@H](CCCNC(=N)N)NC(=O)[C@H](CCC(N)=O)NC(=O)[C@@H](NC(=O)[C@H](C)NC(=O)[C@@H]1CSSC[C@H](NC(=O)[C@@H](N)CCCCNC(=O)CC[C@H](NC(=O)CC[C@H](NC(=O)CCCCCCCCCCCCCCCCCCC(=O)O)C(=O)O)C(=O)O)C(=O)N[C@@H](CC(N)=O)C(=O)N[C@@H]([C@@H](C)O)C(=O)N[C@@H](C)C(=O)N[C@@H]([C@@H](C)O)C(=O)N1)[C@@H](C)O)C(=O)N1CCC[C@H]1C(=O)N[C@@H](CO)C(=O)N[C@@H](CO)C(=O)N[C@H](C(=O)N[C@@H](CC(N)=O)C(=O)N[C@H](C(=O)NCC(=O)N1CCC[C@H]1C(=O)N[C@@H](CCC(=O)O)C(=O)N[C@H](C(=O)N[C@@H](Cc1ccc(O)cc1)C(N)=O)[C@@H](C)O)C(C)C)[C@@H](C)O) | 2360 | 225 | 121 | 
4 | K([γGlu-γGlu-C20 diacid])CNTATCATQRLAEFLRHSSPNFGAIPSSTNVGPHTY-NH2 (disulfide 2-7 (inferred)) | 2830 | 172 | 377 | 
5 | K([γGlu-γGlu-C20 diacid])CNTATCATQRLAEFLRHSSPNFGAILSSTPVGPETY-NH2 (disulfide 2-7 (inferred)) | 1280 | 222 | 69 | 5.8
6 | K([γGlu-γGlu-C20 diacid])CNTATCATQRLAEFLRHSSNNPGAILSSTNVGPETY-NH2 (disulfide 2-7; N-terminus assumed; SMILES CC[C@H](C)[C@H](NC(=O)[C@H](C)NC(=O)CNC(=O)[C@@H]1CCCN1C(=O)[C@H](CC(N)=O)NC(=O)[C@H](CC(N)=O)NC(=O)[C@H](CO)NC(=O)[C@H](CO)NC(=O)[C@H](Cc1c[nH]cn1)NC(=O)[C@H](CCCNC(=N)N)NC(=O)[C@H](CC(C)C)NC(=O)[C@H](Cc1ccccc1)NC(=O)[C@H](CCC(=O)O)NC(=O)[C@H](C)NC(=O)[C@H](CC(C)C)NC(=O)[C@H](CCCNC(=N)N)NC(=O)[C@H](CCC(N)=O)NC(=O)[C@@H](NC(=O)[C@H](C)NC(=O)[C@@H]1CSSC[C@H](NC(=O)[C@@H](N)CCCCNC(=O)CC[C@H](NC(=O)CC[C@H](NC(=O)CCCCCCCCCCCCCCCCCCC(=O)O)C(=O)O)C(=O)O)C(=O)N[C@@H](CC(N)=O)C(=O)N[C@@H]([C@@H](C)O)C(=O)N[C@@H](C)C(=O)N[C@@H]([C@@H](C)O)C(=O)N1)[C@@H](C)O)C(=O)N[C@@H](CC(C)C)C(=O)N[C@@H](CO)C(=O)N[C@@H](CO)C(=O)N[C@H](C(=O)N[C@@H](CC(N)=O)C(=O)N[C@H](C(=O)NCC(=O)N1CCC[C@H]1C(=O)N[C@@H](CCC(=O)O)C(=O)N[C@H](C(=O)N[C@@H](Cc1ccc(O)cc1)C(N)=O)[C@@H](C)O)C(C)C)[C@@H](C)O) | 89600 | 5170 | 1190 | 
7 | K([γGlu-γGlu-C20 diacid])CNTATCATQRLASFLRHSSPNFGAIPSSTNVGPETY-NH2 (disulfide 2-7; N-terminus assumed; SMILES CC[C@H](C)[C@H](NC(=O)[C@H](C)NC(=O)CNC(=O)[C@H](Cc1ccccc1)NC(=O)[C@H](CC(N)=O)NC(=O)[C@@H]1CCCN1C(=O)[C@H](CO)NC(=O)[C@H](CO)NC(=O)[C@H](Cc1c[nH]cn1)NC(=O)[C@H](CCCNC(=N)N)NC(=O)[C@H](CC(C)C)NC(=O)[C@H](Cc1ccccc1)NC(=O)[C@H](CO)NC(=O)[C@H](C)NC(=O)[C@H](CC(C)C)NC(=O)[C@H](CCCNC(=N)N)NC(=O)[C@H](CCC(N)=O)NC(=O)[C@@H](NC(=O)[C@H](C)NC(=O)[C@@H]1CSSC[C@H](NC(=O)[C@@H](N)CCCCNC(=O)CC[C@H](NC(=O)CC[C@H](NC(=O)CCCCCCCCCCCCCCCCCCC(=O)O)C(=O)O)C(=O)O)C(=O)N[C@@H](CC(N)=O)C(=O)N[C@@H]([C@@H](C)O)C(=O)N[C@@H](C)C(=O)N[C@@H]([C@@H](C)O)C(=O)N1)[C@@H](C)O)C(=O)N1CCC[C@H]1C(=O)N[C@@H](CO)C(=O)N[C@@H](CO)C(=O)N[C@H](C(=O)N[C@@H](CC(N)=O)C(=O)N[C@H](C(=O)NCC(=O)N1CCC[C@H]1C(=O)N[C@@H](CCC(=O)O)C(=O)N[C@H](C(=O)N[C@@H](Cc1ccc(O)cc1)C(N)=O)[C@@H](C)O)C(C)C)[C@@H](C)O, also called compound 120) | 887 | 109 | 76 | 8.1

From US20140087995A1 (published 2014)
